Experimental findings from US20260176653A1 (TRUSTEES OF BOSTON UNIVERSITY, published 2026) are described below.

Where a chain is given by its changes, count along the chain named. Numbers in names are those of the source. Ends that are not written are not given here.

Common to all, as to test: cell-based or functional assay
Test [1] concerns the target EGFP(R96M)-AlfaTag fusion protein (non-fluorescent EGFP carrying the ALFA tag).
Test [2] has as its target Bcl-xL (human, fused to the C-terminus of ADAR2-DD) (human, UniProt Q07817 4-198).
Test [3] addresses T1, HCV protease NS3 from genotype 1B (NS4A/NS3, fused to the C-terminus of ADAR2-DD) (Hepatitis C virus genotype 1B, UniProt Q9WMX2 1029-1206).
T1 chain: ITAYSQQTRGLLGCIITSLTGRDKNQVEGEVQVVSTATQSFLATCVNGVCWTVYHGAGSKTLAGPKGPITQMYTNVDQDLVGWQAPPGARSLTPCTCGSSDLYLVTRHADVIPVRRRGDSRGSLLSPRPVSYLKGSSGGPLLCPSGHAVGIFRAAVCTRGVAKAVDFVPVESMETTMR

B1: ALFA-Bcl dual input iADAR (BAD peptide at the N-terminus of ADAR2-DD(F697Y), ALFA-PE at the 5' RNA binding site, AlfaNb and Bcl-xL in tandem at the C-terminus) (other)
chain: MASNFTQFVLVDNGGTGDVTVAPSNFANGIAEWISSNSRSQAYKVTCSVRQSSAQNRKYTIKVEVPKGAWRSYLNMELTIPIFATNSDCELIVKAMQGLLKDGNPIPSAIAANSGIYGGSGSGAGSGSPAGGGAPGSGGGSTGAPPNLWAAQRYGRELRRMSDEFVDSFKKASQLHLPQVLADAVSRLVLGKFGDLTDNFSSPHARRKVLAGVVMTTGTDVKDAKVISVSTGTKCINGEYMSDRGLALNDCHAEIISRRSLLRFLYTQLELYLNNKDDQKRSIFQKSERGGFRLKENVQFHLYISTSPCGDARIFSPHEPILEEPAASGSGPGRLEEELRRRLSPGTGDRHPNRKARGQLRTKIESGQGTIPVRSNASIQTWDGVLQGERLLTMSCSDKIARWNVVGIQGSLLSIFVEPIYFSSIILGSLYHGDHLSRAMYQRISNIEDLPPLYTLNKPLLSGISNAEARQPGKAPNFSVNWTVGDSAIEVINATTGKDELGRASRLCKHALYCRWMRVHGKVPSHLLRSKITKPNVYHESKLAAKEYQAAKARLFTAFIKAGLGAWVEKPTEQDQYSLTGSGGTAEVQLQESGGGLVQPGGSLRLSCTASGVTISALNAMAMGWYRQAPGERRVMVAAVSERGNAMYRESVQGRFTVTRDFTNKMVSLQMDNLKPEDTAVYYCHVLEDRVDSFHDYWGQGTQVTVSSGAGSGASSNRELVVDFLSYKLSQKGYSWSQFSDVEENRTEAPEGTESEMETPSAINGNPSWHLADSPAVNGATGHSSSLDAREVIPMAAVKQALREAGDEFELRYRRAFSDLTSQLHITPGTAYQSFEQVVNELFRDGVNWGRIVAFFSFGGALCVESVDKEMQVLVSRIAAWMATYLNDHLEPWIQENGGWDTFVELYGNNGSSELIKENMHMKLYMEGTVDNHHFKCTSEGEGKPYEGTQTMRIKVVEGGPLPFAFDILATSFLYGSKTFINHTQGIPDFFKQSFPEGFTWERVTTYEDGGVLTATQDTSLQDGCLIYNVKIRGVNFTSNGPVMQKKTLGWEAFTETLYPADGGLEGRNDMALKLVGGSHLIANIKTTYRSKKPAKNLKMPGVYYVDYRLERIKEANNETYVEQHEVAVARYCDLPSKLGHKLN
Turning to B1, the “median relative fluorescence, flow cytometry: A-1331852 plus EGFP(R96M)-AlfaTag against A-1331852 alone (the effect of adding the antigen)” value in test [1] was approximately 10 fold.

B2: Bad(L) peptide (Bad point mutant F121L, inserted at the 5' RNA binding loop of ADAR2-DD) (peptide)
peptide: ASGSGTGAPPNLWAAQRYGRELRRMSDELV
modifications: not fully specified (N-terminus, C-terminus); also: part of an expressed fusion protein
In the case of B2, in test [2], the “Fold Change (1 µM over 0 µM A-1331852)” value is 23.2 fold; the “median ratio of mNeonGreen to mCherry, flow cytometry, 0 µM A-1331852 (background)” value (“median ratio of mNeonGreen … (background)” for short) turned out to be 0.0389; the “median ratio of mNeonGreen to mCherry, flow cytometry, 1 µM A-1331852” value (from here on “median ratio of mNeonGreen … 1 µM A-1331852”) is 0.903.

B3: BAD(G) peptide (Bad with glycine at the F121 position, inserted at the 5' RNA binding loop of ADAR2-DD) (peptide)
peptide: B2 peptide with L29G
modifications: not fully specified
B3: in test [2], the “Fold Change (1 µM over 0 µM A-1331852)” value was 9.65 fold; the “median ratio of mNeonGreen … (background)” value came out at 0.1; the “median ratio of mNeonGreen … 1 µM A-1331852” value was determined as 0.968.

B4: Bad(F) peptide (BH3 peptide Bad with its linker, as inserted at the 5' RNA binding loop of ADAR2-DD) (peptide)
peptide: B2 peptide with L29F
modifications: not fully specified (N-terminus, C-terminus); also: part of an expressed fusion protein
B4: in test [2], the “Fold Change (1 µM over 0 µM A-1331852)” value came out at 37 fold; the “median ratio of mNeonGreen … (background)” value amounted to 0.026; the “median ratio of mNeonGreen … 1 µM A-1331852” value was found to be 0.962.

B5: BAD(V) peptide (Bad point mutant F121V, inserted at the 5' RNA binding loop of ADAR2-DD) (peptide)
peptide: B2 peptide with L29V
modifications: not fully specified
Take B5: in test [2], the “Fold Change (1 µM over 0 µM A-1331852)” value was 14.4 fold; the “median ratio of mNeonGreen … (background)” value is 0.0708; the “median ratio of mNeonGreen … 1 µM A-1331852” value was 1.02.

B6: CP5-46-4D5E peptide (NS3 binding peptide, inserted at the 5' RNA binding loop of ADAR2-DD) (peptide)
peptide: GELDELVYLLDGPGYDPIHCDVVTRGGSHLFNF
For B6, in test [3], the “ratio of mNeonGreen to mCherry, 2 µM grazoprevir against no drug, HEK cells, imaging (fusion SEQ ID NO 169)” value was approximately 18 fold.
